Laboratory results published in doi:10.1101/2023.04.03.535447.

Key:
[1] = molecular target: ACE2 receptor (UniProt Q9BYF1); experiment: ELISA; competitive ELISA of ACE2 binding; Alhydrogel-adsorbed DCFHP incubated overnight at 4, 40 or 50 °C, compared with a reference sample adsorbed on the day of the assay
[2] = molecular target: ACE2 receptor (UniProt Q9BYF1); experiment: ELISA; competitive ELISA of ACE2 binding; DCFHP 100% adsorbed to Alhydrogel (no phosphate), time zero against storage at 4 °C for 3-21 days (mean 10 days); read-out is the native antigen concentration against a reference, target 50 mcg/mL

Sequence of UniProt Q9BYF1 (Q9BYF1 18-805): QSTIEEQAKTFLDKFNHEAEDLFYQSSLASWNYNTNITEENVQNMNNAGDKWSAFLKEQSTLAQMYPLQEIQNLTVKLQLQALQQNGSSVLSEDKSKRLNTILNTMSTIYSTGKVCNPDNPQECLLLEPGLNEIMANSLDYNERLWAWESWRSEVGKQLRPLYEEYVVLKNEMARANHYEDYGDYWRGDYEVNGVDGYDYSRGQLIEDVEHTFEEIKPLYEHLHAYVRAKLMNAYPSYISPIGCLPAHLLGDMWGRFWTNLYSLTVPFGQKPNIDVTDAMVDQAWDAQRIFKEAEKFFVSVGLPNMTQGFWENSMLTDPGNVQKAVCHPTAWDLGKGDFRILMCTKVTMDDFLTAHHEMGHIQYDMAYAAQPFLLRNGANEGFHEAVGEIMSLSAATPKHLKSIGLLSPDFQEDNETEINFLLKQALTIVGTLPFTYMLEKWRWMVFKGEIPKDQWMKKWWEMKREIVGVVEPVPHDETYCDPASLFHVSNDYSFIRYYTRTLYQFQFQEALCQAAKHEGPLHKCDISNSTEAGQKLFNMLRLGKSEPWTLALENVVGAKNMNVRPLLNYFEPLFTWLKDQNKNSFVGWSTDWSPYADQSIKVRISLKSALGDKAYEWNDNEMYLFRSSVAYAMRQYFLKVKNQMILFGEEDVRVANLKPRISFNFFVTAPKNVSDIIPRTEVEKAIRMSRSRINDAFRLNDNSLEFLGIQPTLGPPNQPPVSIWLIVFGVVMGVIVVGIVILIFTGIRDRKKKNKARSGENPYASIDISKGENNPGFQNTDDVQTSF

Q: With “Delta-C70-Ferritin-HexaPro SARS-CoV-2 spike ferritin nanoparticle produced in Expi293 cells” as the substance, how does the loss of ACE2 binding after overnight incubation at 40°C (AH-adsorbed) [1] read?
A: 60%

Q: What about the loss of ACE2 binding after overnight incubation at 50°C (AH-adsorbed) [1] of the same substance?
A: 80%

Q: What about the native antigen concentration by ACE2 competitive ELISA, freshly adsorbed (time zero) [2] of the same substance?
A: 48 µg/mL

Q: What about the native antigen concentration by ACE2 competitive ELISA, stored at 4°C for 3-21 days [2] of the same substance?
A: 75 µg/mL
